Laboratory results reported in PMC10454150, “Molecular Mechanism of a FRET Biosensor for the Cardiac Ryanodine Receptor Pathologically Leaky State” (International Journal of Molecular Sciences, 2023).
Ends that are not written are not given here. QXL520 = non-fluorescent dark acceptor (quencher) probe

Assays:
[1] = molecular target: type 2 ryanodine receptor (RyR2) channel in cardiac SR membranes (pig (endogenous in porcine heart SR)); assay: FRET or BRET; as a1 but 300 uM Ca2+, no DPc10
[2] = molecular target: type 2 ryanodine receptor (RyR2) channel in cardiac SR membranes (pig (endogenous in porcine heart SR)); assay: FRET or BRET; as a1, 30 nM Ca2+, SR pre-treated with 50 uM unlabeled DPc10 for 60 min; apparent affinity
[3] = molecular target: T1, type 2 ryanodine receptor (RyR2) channel in cardiac SR membranes (pig (endogenous in porcine heart SR), UniProt A0A5G2R1W3 1-4900); assay: FRET or BRET; as a6 but 300 uM Ca2+, no CaM; Hill fit; conditions: one partner purified
T1 construct: type 2 ryanodine receptor (RyR2), pig heart; homotetrameric assembly of 565-kDa protomers; 'intact RyR2 in cardiac SR vesicles'; In every assay RyR2 stood in native SR membranes and was preloaded with a donor-labelled FKBP12.6 (D-FKBP); also called cardiac ryanodine receptor; source: endogenous, SR vesicles isolated by differential ultracentrifugation of porcine ventricular tissue; residual …

[4] = molecular target: T1, type 2 ryanodine receptor (RyR2) …; assay: FRET or BRET; FRET from D-14-FKBP on RyR2 in cardiac SR to A-DPc10, series of [A-DPc10]; Ca2+ not stated for this experiment; Hill fit; conditions: one partner purified
[5] = molecular target: T1, type 2 ryanodine receptor (RyR2) …; assay: FRET or BRET; FRET from D-49-FKBP on RyR2 in cardiac SR to A-DPc10, series of [A-DPc10]; Ca2+ not stated for this experiment; Hill fit; conditions: one partner purified
[6] = molecular target: T1, type 2 ryanodine receptor (RyR2) …; assay: FRET or BRET; FRET from D-85-FKBP on RyR2 in cardiac SR to A-DPc10, series of [A-DPc10]; Ca2+ not stated for this experiment; Hill fit; conditions: one partner purified
[7] = molecular target: T1, type 2 ryanodine receptor (RyR2) …; assay: FRET or BRET; as a6, 30 nM Ca2+, pre-incubated 40 min with unlabeled CaM (1 uM by the legend, 30 uM by the text); apparent affinity; Hill fit; conditions: one partner purified
[8] = molecular target: T1, type 2 ryanodine receptor (RyR2) …; assay: FRET or BRET; as a6 but 300 uM Ca2+, pre-incubated 40 min with unlabeled CaM (1 uM by the legend, 30 uM by the text); apparent affinity; Hill fit; conditions: one partner purified
[9] = molecular target: T1, type 2 ryanodine receptor (RyR2) …; assay: FRET or BRET; FRET from D-32-FKBP (loss-of-inhibition variant) on RyR2 in cardiac SR to A-DPc10, series of [A-DPc10]; Ca2+ not stated for this experiment; Hill fit; conditions: one partner purified
[10] = molecular target: T1, type 2 ryanodine receptor (RyR2) …; assay: FRET or BRET; FRET from D-FKBP (labelled position not stated for this experiment) on RyR2 in cardiac SR to A-DPc10 (QXL520), series of [A-DPc10]; 30 nM Ca2+, no CaM; Hill fit; conditions: one partner purified
[11] = molecular target: T1, type 2 ryanodine receptor (RyR2) …; assay: as above; conditions: one partner purified; remark: listed apart in the source

Molecule	fold higher affinity in 300 uM Ca2+ against 30 nM Ca2+ [1] [fold]	fold decrease of apparent affinity with 50 uM DPc10 against no DPc10 [2] [fold]	Kd [3] [µM]	Kd [4] [µM]	Kd [5] [µM]	Kd [6] [µM]	Kd [7] [µM]	Kd [8] [µM]	Kd [9] [µM]	Kd [10] [µM]	Kd [11] [µM]
acceptor-labeled calmodulin (A-CaM), Alexa Fluor 555 at a cysteine substituted at position 34 (natural protein)	2.7	4	–	–	–	–	–	–	–	–	–
QXL520-GFCPDHKAAMVLFLDRVYGIEVQDFLLHLLEVGFLP (also called acceptor-DPc10; source: synthetic peptide (AnaSpec)) [acceptor-labeled DPc10 (A-DPc10), QXL520 at the N-terminus]	–	–	13.2	10	9.9	10.4	14.6	33.9	13.1	10.3	10.4
